Assay: soluble on expression in E. coli; label from the status in PepcDB or PDB records

Sequence | soluble on expression in E. coli
MGSDKIHHHHHHCSDNDSDLTIYIPDAGTAVKANFYIEDEPYVQTFNVAVTPETYPQLTEYGLPNDAVVHLQADPGKVDEYNAKNGTEYELLPEAAYDLTEEVLVKAGTPKSEEAVITVHAKGNIEAFKEYLLPVSITSVEGAVADHCCQTIYFIFRGSMDASNMELLDRTGWEALSASSEEPKEGDWGHSGLKEACLDGDLNTFWGTDWSTQHPQPPHWIVIDLKKTTHIQGFACQAREEGYDGPKEVTVEVSDDNATWTVAAKFKDIPAQGEFRSFLPAAVDGRYLKVTITAVNGGPHVTISELNLF | not soluble
MSLNEQKAQQLLMFFREQAEKPLSVNELEEALNLEDAQEFKELVQVLNEMEEKGLLVRTRSNRYGVPEKMNLLRGVVQGHAKGFAFVIPEEEGHSDVYVSHVDLESAMNGDRVIVRLHPHSTGTRPEGKVIRILERGVSEVIGTYVDHQTYGLVVADDKRIPNDILIVNPEAQGLVDGHKVIVKITKYPEGRMSAEGEVISILGHKNDPGMDILSIIYKYGIPQAFPEEVLQQAQNIPDEIDAGEIKNRRDLRDEPLVTIDGADAKDLDDAVHVSRLPNGNFKLGVHIADVSYYVKEKSPIDLEAAERGTSVYLVDRVIPMIPHRLSNGICSLNPQVDRLTLSCEMEITRDGQVVNHEIFQSVIRTNERMTYHDVNKILVEKEEELRNRYELLVPMFEDMEELAAILRKKRFGRGAIDFDFKEAKVLVDEEGKPSDVVIRERGVAEKLIEEFMLAANETVAEHFHWLKLPFMYRIHEDPDSEKLGRFLEFITNFGYVVRGTANTVHPRALQKLLEEVRGEPEEQVISTVMLRSMQQAKYDPTSLGHFGLSTEFYTHFTSPIRRYPDLIVHRLIREYLIKGNVDEETQEKWRERLPEIARHCSEMERRAVDAERETDDVKKAQFMEDKIGETFTGIISGVTNFGIFVELENTIEGLVHVSYLTDDYYRYDEKHYAMIGERSGNVFRIGDEIEVRVINVNVEEASIDFEIVGMKPRKQRPDKSRPKVIEGGKRKKKENRGALALDGSKPKKKKKKKAFYENAPSAKRKKGKKRKREGHHHHHH | soluble
MTTDYDFWLFDLDGTLVDIEPAYPRKVMGAVGDRLGVEFTDRERDALWYGFGGTRSRTLAERNVDQQEFWRLFHEEEDPIARAEATYLYDDAEQFLATLDTPVGLVTHCQQYLTEPVLDHLDITDWFETVVCCDDDIGWKPDPKPVELAMREMDVWYNGHHGVLAGDNPSDIGAAWNAGLDGVHVGRRSPTETGRCVRGDRRVASLLDLSSSQGR | not soluble
MYPADFASQLNVLTLAEMKKTIHDILDFRDEDIWMLFGTLPVFPCLKDDEDQKLLSRLRNANNVTTRNDPDGRSRLNVNVFTGNVIVTDFGDETGTISNIQKDKLTDVFDKWLSSDLAKSLNCHCSEFSCLGPNVLVKNMYYPNMDFKDNERHMHKQPQIIQF | not soluble
GPGSMANGVTANSMRVNVKAPDLGAFPLDHYSECKSQVEAYYRCLKSNEYVTPLCRDQMREYLQCRMDRGLMKPADLDGFGIPKTEFVPTRQHRIDLKQQWLRQKMNQVTVVWEENYRRDDLQVPDGYEREKGGGDGGGGNPKPVGEKVNT | not soluble
MSLTRAAVNPKPFVVPELKQWTGKDGNFTPGKDTRIVCTSQNPELLRIARMFADDYQQMFGQTLSVAQGKATSGDFVLSLSADKKLGEEGYAIKITDRVAISAPTPTGLYWSTRTLLQLAEQNQERSLPQGTIRDYPDYPLRGFMIDCGRKFIPMAYLQDLVKIMAYYKMNTLQVHLNDNGFKQYFEHNWDKTYAAFRLESETYPGLTARDGSYSKKEFIDFQKQAASNFVEIIPEIDVPAHSLALTHYKPEIGSKEYGMDHLDLFKPETYEFVDALFKEYLEGDNPVFVGKRVHIGTDEYSNAKKDVVEKFRAFTDHYIRFVEGFGKQAVVWGALSHAKGDTPVKSENVVMNAWYNGYADPATMIKDGYQLISIPDGLVYIVPKAGYYYDYLNEPYLYKEWTPAHIGKAVFDEKHPSILGGMFAIWNDHVGNGISVKDIHHRIFSPLQTLSVKMWTGAQTGIPYETFNEKRALLSEAPGVNQLARIGKKPELVYERSTVAPGSTSDYPEIGYNYTVSFDITGAKESEGTELFRSPNAVFYLSDPIRGEGHHHHHH | soluble
MSLEALMNVQFFDHAHHKLKIRGLQSPVDVLTFEGREQLSTPFRYDIQFTSSDKAIAPESVLMQDGAFSLTAPPVQGMPVQTALRTLHGVITGFKHLSSSQDEARYEVRLEPRMALLTRSRQNAIYQNQTVPQIVEKILRERHQMRGQDFVFNLKSEYPAREQVMQYGEDDLTFVSRLLSEVGIWFRFATDARLKIEVIEFYDDQSGYERGLTLPLRHPSGLFDGETEAVWGLNTAYSVVEKSVSTRDYNYREATAEMTTGQHDATGGDNTTYGEAYHYADNFLQQGDKEAAESGAFYARIRHERYLNEQAILKGQSTSSLLMPGLEIKVQGDDAPAVFRKGVLITGVTTSAARDRSYELTFTAIPYSERYGYRPALIPRPVMAGTLPARVTSTVKNDIYAHIDKDGRYRVNLDFDRDTWKPGYESLWVRQSRPYAGDTYGLHLPLLAGTEVSIAFEEGNPDRPYIAGVKHDSAHTDHVTIQNYKRNVLRTPANNKIRLDDERGKEHIKVSTEYGGKSQLNLGHLVDAGKEQRGEGFELRTDLWGAVRAKKGIFISADAQDKAQGQVLEMQPALARLSAALVTMESLAASAQQAQALAADVSRQQTLLQQKIEQLQQEVLLGSAPKGVALVSGEDMQLSASDNLTLTAGKQLDIGVQKDFTLAAGKQLSLYSRAGAKLFSSHNDIDIQAQGGNLTTWSTQDTYISSGKKLVVTAQDELTLICGGGYIKIKSGNVEIGGPGKLLVKNAGIKKAGSGSMQGVMKSFEPESFDENFIISNPASGKPIANQKYEIHMPDGSVIAGITDAMGYSSLVASKASDDLKIILKKEGHHHHHH | soluble
MSLTEFPGIVKEYEAITRYCGFNSIEAGKTMGLSPYGEPNPEIPPMFVNGFGNRNLFKPNYPNGAYVIEDRYKIIRDDYISHNGEVGTGEYTQVQKDLAYAIQKESEDQMCALIQKAHEMTGEKNIVICGGYGLNCVANYKFKQRFPNLNIYVEPISHDGGTSMGGAYHVYYNDYVKTGKESRKVEPPKTIYYGPQYDPDTYLNYIHEYPSAKVTDASYDSVARLIREGNIVTIFQGRSEAGPRALGNRSILFDPTIKDGKDIVNSVKHREFFRPFACSILADKVHDWFDLAGMDDSPSMMYAVDALPGVAEKIPSVIHVDNTCRIQTVTKEQNEHYYNLISAFEKLSNTPILFNTSFNLGGDPLVEDIDDALDTLSTSDINYMYLPEIQKLVELKTREMQDTRQQPINEGHHHHHH | soluble
MAHHHHHHMRRTIRVFTGKLLWEDFTNTRLITINREKALNSMDLEMVKAMQRAYVHEPHAKGDSALFVVKGAGNKSFCAGGDIVSLKDRYDVAAEFFYTEYQMNYHILTMPNPQVSLWDGYVMGGGVGVSVHGRYRVASERAVFAMPETAIGLFPDVGASWFLPRLKMKGLGLYLGLTGARLKGADVAHTGLATHYVPSARFCELEERLCHIDDPAKVEACLEEFAVRDLPPFTLEPHRETIEKSFALEEKTTVEGIYESLSADGGEFAKGTINTLNRMAPTSLRVSLEMQKRGVKMTDPADVFRMDYIGSLRTHANSDFHEGVRALLVDKTKDPKWKPAKLSDVTADYVEAYFKPMGNQARQWHPTVPY | soluble
MIAVVIPAHNEARRLGRCLRAVLVAARQAQQAGLHVEVLVVLDRCSDGSAAVARRFGVHTLEVDAGNVGMARRVGAAHMVERGATWLACTDADSRVPAHWLLSQLACSAEVVCGTVHVEYWQPWQTAALRKLYQSRYQACEGHRHVHGANLGVCADAYERVGGFQPLAAHEDVQLVSDLQASGAQIVWTARHSVATSSRRDSRAREGFGDYLAGLQAQSLEHHHHHH | not soluble
YSSRRFEKKKIHFPSRRRRFVDYLINAQRSEKLELNSQQQLGNRHSGSSELVKSESRKKAKSSNQKEKVKPEKRGRATATTGAGPTIDQSLKGPTGTTMASERGMTMTQTIQKEKSIKKKKSEKDERKRAKEVGNEEAAADNQTVTQGNDTTTTQGPSSMFPADLSKKHRLGLQKVKERAVEVPEKKKTKNNE | not soluble
GMATVRLLDDAEISTLPEVKAVFDDIRATRGSDFVNNIWRGLANDPALLKRTWEQVKTVMVGEGALDPLTREMIYLAVSTANSCSYCAHSHTAAARAKGMTPAQHAEVLAIIGLAAQTNALVTAMQIPVDEAFLVDGK | soluble
MQTFEIKEEFLVDGKPTKLISGAIHYFRMTPAQWEDSLYNLKALGANTIETYIPWNLHEPVEGVYDFEGMKDIVAFVSLAQELGLMVILRPSVYICAEWEFGGLPAWLLKEHVRLRSTDPRFIAKVRTYFSVLLPKLVPLQVTHGGPVIMMQVENEYGSYGMEKEYLRQTKQVMEEFGIDVPLFTSDGAWEEVLDVGTLIEEDVFVTGNFGSHSKENATVMKAFMAKHDKKWPIMCMEYWDGWFNRWGEPIIKRDGQDLANEVKDMLALGSLNLYMFHGGTNFGFYNGCSARGVLDLPQVTSYDYDALLTEAGEPTEKYFHVQRAIKEVCPEVWQAEPRRKTFGSLGTFPVQNSVSLLAVKDQMMTAQETMYPITMEEAESGYGYMLYSVNLKNYHHENKLKVVEASDRLHLFADGSLQTIQYQENLREEVMIKGTPEKEWIELDVLVENLGRVNYGFKLNGPTQVKGIRGGIMQDIHFHQGYRQYALTLSADQLKKIDYTAGKNPAQPSFYQAEFTLTDLADTFIDCRSYGKGVVIVNGINLGRYWQRGPIHSLYCPKEFLKKGTNEIVIFETEGIEINELIFCGQPIVKKLLTNDFSEIGSNIHNHIDS | not soluble
MGSDKIHHHHHHMAVTLYSSIATPHNKNTHHYFTRRTFLPDQQNSLWKIEAGFVRTFTYLENGTTVALGLWGPGDILGRALSKLEPYQMECLTKVEATIVPIEEWKNPTDTLLAHIQQAEELMVIRSYKKVDTMLIKLLAWLSKKFGSEVDKGRLIDMRLTHEDLAEMLGSTRVTITRILGQFEEEGLINRLSLHRIVLKEEDIWYYEI | not soluble
TTAYMEYNTTGSVKGLDNVKIRRALNLATNRKGVVQAAVDTGSKPAIAFAPTGLAKTPDGTDLAKYVAPGYEYNKTEAAKLFKEGLAESGLTKLKLTITADADAPAAKNSVDYIKSTWEAALPGLTVEEKFVTFKQRLEDSRKQNFDIVVSLWGGDYPEGSTFYGLFKSDSQNNDGKFANKDYDAAYNKAISEDAMKPAESAKDYKEAEKILFEQGAYNPLYFRSGKGLQNPKLKGVIRNTTGLSIDFTHAYKK | not soluble
MSLAESQLSKLDVNLQSLNPYTFSKTRCIVNLHISDDTKNRDPSTTNGSYSNSQLLSNGEHVCYHFSQDYCVLSIYPVTDAITGKTVVVHLPHETFNDHHTFTMAEEDGCIVMDLILKTGLFLTLRFSLEYLFNRNADINSSWYSLLKPYDFTVRLPDYLYKVNSALSIVYLNDGGLLGLQKTQTSGSDEYDLHPVLFNDNSYFQSFTRFFSHNDSGRENVVSSVSYGDYHLLTLTENCKLRIWDLRTNSVTAQLNLITDPQDKHRKYESIGPYLALLDSVLVVFLPFGNGAFRTFQLSVNNSGGLVLTPRGELIRTNLSTASIWSLVDTKLTKPFELNIETSYLQMVVLWKSNTSIKLQILNFETEALDKHSWVEASNKSLPDILDNDILGDNFEQSLLDLKAHYTPAIYEEAQRILSANGIIFVPSQQNNDEYLSNLESILKDLKKHHDEPSSLTLYNGEVVMVNTLYLYNHFVYKINSKLESFYYNLTSEGHHHHHH | soluble
MYKIVNNDQNKRLVIAKSKAQSLRKTFLHSCLPKMPLSQPWSHSFEICQEHNTQKRISYSRLHRSIGRLRVFLTDDNSILKSTNKFIKILIQQIAFHNLFRWYCRWNDEFQVDEHLDHFCRKDKAQEVFNVSWLVLKFNVFKLYTQKFLYTYSFITIFRLSFRFPTTFRSIF | not soluble

Source: the DeepSol protein solubility set
